Assay [1] concerns the target HER2 (UniProt P04626). Kind of assay: apparent Kd, flow cytometry on SKOV3 cells.
For assay [2], the target named is HER2 (UniProt P04626). Kind of assay: apparent Kd, flow cytometry on SKOV3 cells (n = 2). (In general: A flow cytometer gives signals particle by particle.)
The target of assay [3] is HER2 (UniProt P04626). Kind of assay: apparent Kd, flow cytometry on SKBr3 cells.
Assay [4] concerns the target HER2 (UniProt P04626). Kind of assay: apparent Kd, flow cytometry on JIMT-1 cells.

Consider “trast A158N-MB488: trastuzumab A158N mutant conjugated through Neu5NAz on Fd glycans (antibody)”, for which the Kd stood at 3.3 nM in the assay with HER2 [1], 3.5 nM with HER2 [2], 2.6 nM in the assay with HER2 [3] and 3.9 nM with HER2 [4].

Consider trast K129N-MB488 (antibody), for which the Kd with HER2 [1] amounted to 3.1 nM; in the assay with HER2 [3], 2.3 nM; with HER2 [4], 3.2 nM.

For trast T191N-MB488 (antibody), the Kd with HER2 [3] was found to be 1.8 nM.

For the substance “trast L189N-MB488: trastuzumab L189N mutant conjugated through Neu5NAz on Fd glycans (antibody)”, the Kd with HER2 [1] amounted to 3.4 nM; with HER2 [2], 3.5 nM.

Source of the values: patent publication US20210087298A1.
